Values of other authors as cited in patent US20080279771A1, “Novel Imaging Agents for Cancer” (GE HEALTHCARE LIMITED, priority 2005, published 2008).

Biological target: neuropilin-1 receptor (NP-1) (Homo sapiens, UniProt O14786)
Conditions: NP-1 on tumour cells; read-out: Kd of binding of SEM-3A to NP-1

neuropilin-1 receptor (NP-1), sequence (O14786 22-923): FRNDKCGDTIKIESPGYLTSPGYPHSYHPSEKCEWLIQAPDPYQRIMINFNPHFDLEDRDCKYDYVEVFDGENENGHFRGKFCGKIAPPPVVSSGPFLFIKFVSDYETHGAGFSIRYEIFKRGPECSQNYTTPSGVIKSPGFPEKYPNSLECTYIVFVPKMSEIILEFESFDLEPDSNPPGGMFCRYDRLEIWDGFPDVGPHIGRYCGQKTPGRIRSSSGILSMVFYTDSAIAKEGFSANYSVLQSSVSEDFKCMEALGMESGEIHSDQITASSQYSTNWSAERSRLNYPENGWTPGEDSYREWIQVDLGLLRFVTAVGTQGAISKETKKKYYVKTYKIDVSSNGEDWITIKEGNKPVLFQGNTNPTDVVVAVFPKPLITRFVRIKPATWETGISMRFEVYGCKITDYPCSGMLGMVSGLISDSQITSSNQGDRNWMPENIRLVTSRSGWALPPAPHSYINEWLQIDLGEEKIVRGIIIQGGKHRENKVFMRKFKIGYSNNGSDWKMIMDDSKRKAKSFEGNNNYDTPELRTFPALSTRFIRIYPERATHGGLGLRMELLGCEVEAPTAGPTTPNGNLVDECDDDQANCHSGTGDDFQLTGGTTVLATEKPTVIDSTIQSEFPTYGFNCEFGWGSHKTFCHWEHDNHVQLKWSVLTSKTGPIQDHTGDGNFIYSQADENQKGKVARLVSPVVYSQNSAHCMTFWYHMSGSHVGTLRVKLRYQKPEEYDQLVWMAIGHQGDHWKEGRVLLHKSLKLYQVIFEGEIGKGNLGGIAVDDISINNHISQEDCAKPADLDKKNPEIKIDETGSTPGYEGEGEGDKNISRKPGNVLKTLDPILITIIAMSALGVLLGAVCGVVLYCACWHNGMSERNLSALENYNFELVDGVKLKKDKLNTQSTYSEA

- Kd: ~0.28 nM
B1: SEM-3A: Semaphorin-3A, biological peptide that binds the neuropilin-1 receptor; human precursor form consists of 771 amino acids (protein, UniProt Q14563 21-771, looked up)
Semaphorin-3A: NYQNGKNNVPRLKLSYKEMLESNNVITFNGLANSSSYHTFLLDEERSRLYVGAKDHIFSFDLVNIKDFQKIVWPVSYTRRDECKWAGKDILKECANFIKVLKAYNQTHLYACGTGAFHPICTYIEIGHHPEDNIFKLENSHFENGRGKSPYDPKLLTASLLIDGELYSGTAADFMGRDFAIFRTLGHHHPIRTEQHDSRWLNDPKFISAHLISESDNPEDDKVYFFFRENAIDGEHSGKATHARIGQICKNDFGGHRSLVNKWTTFLKARLICSVPGPNGIDTHFDELQDVFLMNFKDPKNPVVYGVFTTSSNIFKGSAVCMYSMSDVRRVFLGPYAHRDGPNYQWVPYQGRVPYPRPGTCPSKTFGGFDSTKDLPDDVITFARSHPAMYNPVFPMNNRPIVIKTDVNYQFTQIVVDRVDAEDGQYDVMFIGTDVGTVLKVVSIPKETWYDLEEVLLEEMTVFREPTAISAMELSTKQQQLYIGSTAGVAQLPLHRCDIYGKACAECCLARDPYCAWDGSACSRYFPTAKRRTRRQDIRNGDPLTHCSDLHHDNHHGHSPEERIIYGVENSSTFLECSPKSQRALVYWQFQRRNEERKEEIRVDDHIIRTDQGLLLRSLQQKDSGNYLCHAVEHGFIQTLLKVTLEVIDTEHLEELLHKDDDGDGSKTKEMSNSMTPSQKVWYRDFMQLINHPNLNTMDEFCEQVWKRDRKQRRQRPGHTPGNSNKWKHLQENKKGRNRRTHEFERAPRSV
